Experimental data as given in patent publication US20240124545A1, “COMPOSITIONS AND METHODS RELATING TO THE TREATMENT OF DISEASES” (ILC THERAPEUTICS LIMITED, priority 2021, published 2024).
“And” between values parts separate entries of the source, which are not always exact repeats. Identical values can stand only once. Like-named read-outs stand apart in the source and are kept apart here.

Assays:
HeLa-CD4-βgal cells [1] = tested on: HeLa-CD4-βgal cells
HEp-2 cells [2] = assay: XTT viability (cytotoxicity) assay, uninfected HEp-2 cells; conditions: 1 μM; 72 hours
HeLa-CD4-βgal cells [3] = assay: XTT viability (cytotoxicity) assay, uninfected HeLa-CD4-βgal cells (Experiment 4); conditions: 1 μM; 48 hours
HeLa-CD4-βgal cells [4] = assay: XTT viability (cytotoxicity) assay, uninfected HeLa-CD4-βgal cells (Experiment 5); conditions: 10 μM
HRSV Long strain = assay: HRSV infectivity assay, immunostaining readout in HEp-2 cells; type: cell-based, human respiratory syncytial virus (HRSV) Long strain; conditions: for HRSV Infectivity in HEp-2 cells (% vehicle): 72 hours, average of duplicates; for HRSV Infectivity in HEp-2 cells - Raw OD- Absorbance (490 nm): duplicate A490 values
HIV-1 LAI [5] = assay: HIV-1 LAI infectivity assay with β-galactosidase readout (Experiment 5); type: cell-based, human immunodeficiency virus type 1 (HIV-1) LAI strain; conditions: for HIV-1 Infectivity in HeLa-CD4-βgal cells (% vehicle): mean of duplicates; for HIV Infectivity in HeLa CD4 βgal cells (β-galactosidase units): individual values
[6] = tested on: SK-OV-3 NucLight Red cells co-cultured with natural killer (NK) cells; assay: Live cell imaging assay of immune cell killing (IncuCyte ZOOM); type: cell-based
Procedure: The effect of a hybrid recombinant interferon was tested in a live cell imaging assay of immune cell killing on an IncuCyte ZOOM platform. SK-OV-3 ovarian cancer cells with red labelled nuclei (SK-OV-3 NucLight Red) were used as target cells in the study. For immune cell killing, the cells were co-cultured with natural killer (NK) cells and positive controls consisted of cells treated with IL-2 and IL-12. Apoptosis was detected by staining caspase 3/7 positive objects while cell number was determined by counting of red nuclei. […] An initial optimisation experiment was carried out that tested 4 ratios of target and effector cells. […] Results were compared to no treatment controls, vehicle treated controls and IL-2/IL-12 treated cells. All conditions were tested using cells in co-culture (SK-OV-3 NucLight and NK cells) and mono-culture (SK-OV-3 NucLight Red). Cells were monitored for 4 days using an IncuCyte ZOOM, and IncuCyte software was used to measure green (apoptosis) and red (cell number) object count over time. Area under the curve (AUC) analysis was used to quantitate apoptosis and cell number over the time course.

natural killer cells = assay: NK cell monoculture model (cell clustering); type: cell-based
IL-17A = assay: Suppression of IL-17A synthesis; type: cell-based
IL 17F = assay: Suppression of IL-17F; type: cell-based; conditions: listed as Hybrid 2
SARS-CoV-1 [7] = type: cell-based, SARS-HCoV2003VA2774; conditions: Vero E6 cells
SARS-CoV-1 [8] = type: cell-based
human RSV = assay: Plaque assay with human RSV (FIG. 9); type: cell-based
[9] = tested on: Herpes Simplex Virus Type 1 (HSV1); assay: HSV1 infection of primary human keratinocytes; type: cell-based
HIV-1 LAI [10] = conditions: for HIV Infectivity in HeLa-CD4-βgal cells (% vehicle): 48 hours
HEp-2 cells [11] = tested on: HEp-2 cells
HeLa-CD4-βgal cells [12] = tested on: HeLa-CD4-βgal cells; remark: listed apart in the source

CC[C@H]1CN2CCc3cc(OC)c(OC)cc3[C@@H]2C[C@@H]1C[C@H]1NCCc2cc(OC)c(OC)cc21 [Emetine]
inhibition by viability control in XTT cytotoxicity assays (HeLa-CD4-βgal cells [1]; human): greater than 85%
inhibition of cell viability by cytotoxic compound control (HeLa-CD4-βgal cells [1]; human): greater than 90%
HEp-2 viability in the XTT assay (percentage values), controls (HEp-2 cells [2]): 6.8 ± 1.1 % vehicle
Viability of HeLa-CD4-βgal cells in the XTT assay (percentage values), controls (HeLa-CD4-βgal cells [3]): 10.0 ± 1.7%
Viability of Uninfected HeLa-CD4-β gal Cells (% vehicle alone), controls (HeLa-CD4-βgal cells [4]; 48 hours): 5.6 ± 0.7 % vehicle alone
Viability (A490), controls, HeLa-CD4-βgal cells (HeLa-CD4-βgal cells [4]; raw absorbance 490 nm): 0.213 and 0.203

B1: Sample B: recombinant IFN-α10-IFN-α14 hybrid interferon alpha, amino acid sequence SEQ ID NO:3; sample B in Experiments 4 and 5 (protein)
chain: CDLPQTHSLGNRRALILLGQMGRISPFSCLKDRHDFRIPQEEFDGNQFQKAQAISVLHEMMQQTFNLFSTKNSSAAWDETLLEKFYIELFQQMNDLEACVIQEVGVEETPLMNEDSILAVKKYFQRITLYLIERKYSPCAWEVVRAEIMRSLSFSTNLQKRLRRKD
HRSV Infectivity in HEp-2 cells (% vehicle) (HRSV Long strain; 0.001 ng/mL): 91.5 % vehicle
HRSV Infectivity in HEp-2 cells - Raw OD- Absorbance (490 nm) (HRSV Long strain; 0.001 ng/mL): 0.647 and 0.675
HRSV Infectivity in HEp-2 cells (% vehicle) (HRSV Long strain; 0.01 ng/mL): 71.3 % vehicle
HRSV Infectivity in HEp-2 cells - Raw OD- Absorbance (490 nm) (HRSV Long strain; 0.01 ng/mL): 0.550 and 0.573
HRSV Infectivity in HEp-2 cells (% vehicle) (HRSV Long strain; 0.1 ng/mL): 27.6 % vehicle
HRSV Infectivity in HEp-2 cells - Raw OD- Absorbance (490 nm) (HRSV Long strain; 0.1 ng/mL): 0.353 and 0.338
HRSV Infectivity in HEp-2 cells (% vehicle) (HRSV Long strain; 1.0 ng/mL): 9.7 % vehicle
HRSV Infectivity in HEp-2 cells - Raw OD- Absorbance (490 nm) (HRSV Long strain; 1.0 ng/mL): 0.244 and 0.270
HRSV Infectivity in HEp-2 cells (% vehicle) (HRSV Long strain; 10 ng/mL): 12.3 % vehicle
HRSV Infectivity in HEp-2 cells - Raw OD- Absorbance (490 nm) (HRSV Long strain; 10 ng/mL): 0.248 and 0.292
HRSV Infectivity in HEp-2 cells (% vehicle) (HRSV Long strain; 100 ng/mL): 11.9 % vehicle
HRSV Infectivity in HEp-2 cells - Raw OD- Absorbance (490 nm) (HRSV Long strain; 100 ng/mL): 0.283 and 0.253
HRSV Infectivity in HEp-2 cells (% vehicle) (HRSV Long strain; 1,000 ng/mL): 9.6 % vehicle
HRSV Infectivity in HEp-2 cells - Raw OD- Absorbance (490 nm) (HRSV Long strain; 1,000 ng/mL): 0.262 and 0.251
HRSV Infectivity in HEp-2 cells (% vehicle) (HRSV Long strain; 10,000 ng/mL): 6.6 % vehicle
HRSV Infectivity in HEp-2 cells - Raw OD- Absorbance (490 nm) (HRSV Long strain; 10,000 ng/mL): 0.252 and 0.230
IC50 (infectivity), HRSV Antiviral Assay (HRSV Long strain; HRSV Long, Hep-2 cells, 3 days): 0.03 ng/mL and 0.027 ng/mL
HIV-1 Infectivity in HeLa-CD4-βgal cells (% vehicle) (HIV-1 LAI [5]; 0.0001 ng/mL, 48 hours): 102.4 % vehicle
HIV Infectivity in HeLa CD4 βgal cells (β-galactosidase units) (HIV-1 LAI [5]; 0.0001 ng/mL): 971,384 RLU and 1,112,752 RLU
HIV-1 Infectivity in HeLa-CD4-βgal cells (% vehicle) (HIV-1 LAI [5]; 0.001 ng/mL, 48 hours): 96.3 % vehicle
HIV Infectivity in HeLa CD4 βgal cells (β-galactosidase units) (HIV-1 LAI [5]; 0.001 ng/mL): 1,062,736 RLU and 896,209 RLU
HIV-1 Infectivity in HeLa-CD4-βgal cells (% vehicle) (HIV-1 LAI [5]; 0.01 ng/mL, 48 hours): 77.7 % vehicle
HIV Infectivity in HeLa CD4 βgal cells (β-galactosidase units) (HIV-1 LAI [5]; 0.01 ng/mL): 761,455 RLU and 820,758 RLU
HIV-1 Infectivity in HeLa-CD4-βgal cells (% vehicle) (HIV-1 LAI [5]; 0.1 ng/mL, 48 hours): 58.0 % vehicle
HIV Infectivity in HeLa CD4 βgal cells (β-galactosidase units) (HIV-1 LAI [5]; 0.1 ng/mL): 588,618 RLU and 595,007 RLU
HIV-1 Infectivity in HeLa-CD4-βgal cells (% vehicle) (HIV-1 LAI [5]; 1 ng/mL, 48 hours): 36.0 % vehicle
HIV Infectivity in HeLa CD4 βgal cells (β-galactosidase units) (HIV-1 LAI [5]; 1.0 ng/mL): 343,482 RLU and 394,833 RLU
HIV-1 Infectivity in HeLa-CD4-βgal cells (% vehicle) (HIV-1 LAI [5]; 10 ng/mL, 48 hours): 30.2 % vehicle
HIV Infectivity in HeLa CD4 βgal cells (β-galactosidase units) (HIV-1 LAI [5]; 10 ng/mL): 302,405 RLU and 317,823 RLU
HIV-1 Infectivity in HeLa-CD4-βgal cells (% vehicle) (HIV-1 LAI [5]; 100 ng/mL, 48 hours): 28.9 % vehicle
HIV Infectivity in HeLa CD4 βgal cells (β-galactosidase units) (HIV-1 LAI [5]; 100 ng/mL): 278,916 RLU and 314,495 RLU
HIV-1 Infectivity in HeLa-CD4-βgal cells (% vehicle) (HIV-1 LAI [5]; 1,000 ng/mL, 48 hours): 30.7 % vehicle
HIV Infectivity in HeLa CD4 βgal cells (β-galactosidase units) (HIV-1 LAI [5]; 1,000 ng/mL): 299,975 RLU and 330,705 RLU
HIV-1 Infectivity in HeLa-CD4-βgal cells (% vehicle) (HIV-1 LAI [5]; 10,000 ng/mL, 48 hours): 31.5 % vehicle
HIV Infectivity in HeLa CD4 βgal cells (β-galactosidase units) (HIV-1 LAI [5]; 10,000 ng/mL): 300,821 RLU and 344,654 RLU
IC50 (infectivity), HIV-1 Antiviral Assay (HeLa-CD4-Bgal cells) (HIV-1 LAI [5]; HIV-1 LAI, 48 hours): 0.03 ng/mL
infection signal still observed (HIV-1 LAI [5]; highest concentrations tested (10 μg/mL)): about 25%
IC50 for the reduction in cell number [6]: 1.3×10^6 IU/ml
apoptosis response of cells in mono-culture ([6]; SK-OV-3 NucLight Red mono-culture): only a marginal response
EC50 for apoptosis induction ([6]; co-culture model): 1.5×10^6 IU/ml
AUC of apoptosis (caspase 3/7 positive object count over time) ([6]; co-culture model, top dose (3×10^6 IU/ml), 4 days, vehicle controls 200): 1174
AUC values for cell number (red nuclei count over time) ([6]; top dose, vehicle controls 39921): 19501
direct activation of natural killer cells (cell clustering) (natural killer cells): very strong direct activation of natural killer cells
suppression of IL-17A synthesis (IL-17A; listed as HYBRID 2): suppression of IL-17A synthesis
suppression of IL-17A synthesis (IL-17A; listed as Hybrid 2): inhibits both 17 A and F very strongly
suppression of IL 17F (IL 17F): inhibits both 17 A and F very strongly
inhibition of the cytopathic effect following SARS-CoV-1 infection (SARS-CoV-1 [7]): inhibit the cytopathic effect
inhibition of plaque formation following SARS-CoV-1 infection (SARS-CoV-1 [8]): inhibit the cytopathic effect and plaque formation
inhibition of a plaque assay with human RSV (human RSV): inhibition of a plaque assay with human RSV
effect on HSV1 infection [9]: reduces Herpes Simplex Virus Type 1 (HSV1) infection
IC50 (infectivity), HIV-1 Antiviral Assay (HIV-1 LAI [10]): 0.009 ng/mL
HIV Infectivity in HeLa CD4 βgal cells (β-galactosidase units) (HIV-1 LAI [10]; 0.0001 ng/mL): 1,159,421 RLU and 1,143,347 RLU
HIV Infectivity in HeLa-CD4-βgal cells (% vehicle) (HIV-1 LAI [10]; 0.0001 ng/mL): 101.4 % vehicle
HIV Infectivity in HeLa-CD4-βgal cells (% vehicle) (HIV-1 LAI [10]; 0.001 ng/mL): 91.9 % vehicle
HIV Infectivity in HeLa CD4 βgal cells (β-galactosidase units) (HIV-1 LAI [10]; 0.01 ng/mL): 729,428 RLU and 754,356 RLU
HIV Infectivity in HeLa-CD4-βgal cells (% vehicle) (HIV-1 LAI [10]; 0.01 ng/mL): 65.2 % vehicle
HIV Infectivity in HeLa CD4 βgal cells (β-galactosidase units) (HIV-1 LAI [10]; 0.1 ng/mL): 505,696 RLU and 431,727 RLU
HIV Infectivity in HeLa-CD4-βgal cells (% vehicle) (HIV-1 LAI [10]; 0.1 ng/mL): 41.1 % vehicle
HIV Infectivity in HeLa CD4 βgal cells (β-galactosidase units) (HIV-1 LAI [10]; 1.0 ng/mL): 338,683 RLU and 353,822 RLU
HIV Infectivity in HeLa-CD4-βgal cells (% vehicle) (HIV-1 LAI [10]; 1.0 ng/mL): 30.3 % vehicle
HIV Infectivity in HeLa CD4 βgal cells (β-galactosidase units) (HIV-1 LAI [10]; 10 ng/mL): 292,575 RLU and 343,225 RLU
HIV Infectivity in HeLa-CD4-βgal cells (% vehicle) (HIV-1 LAI [10]; 10 ng/mL): 27.8 % vehicle
HIV Infectivity in HeLa CD4 βgal cells (β-galactosidase units) (HIV-1 LAI [10]; 100 ng/mL): 289,671 RLU and 320,902 RLU
HIV Infectivity in HeLa-CD4-βgal cells (% vehicle) (HIV-1 LAI [10]; 100 ng/mL): 26.7 % vehicle
HIV Infectivity in HeLa CD4 βgal cells (β-galactosidase units) (HIV-1 LAI [10]; 1,000 ng/mL): 340,382 RLU and 330,715 RLU
HIV Infectivity in HeLa-CD4-βgal cells (% vehicle) (HIV-1 LAI [10]; 1,000 ng/mL): 29.4 % vehicle
HIV Infectivity in HeLa CD4 βgal cells (β-galactosidase units) (HIV-1 LAI [10]; 10,000 ng/mL): 363,841 RLU and 344,014 RLU
HIV Infectivity in HeLa-CD4-βgal cells (% vehicle) (HIV-1 LAI [10]; 10,000 ng/mL): 31.0 % vehicle
CC50, Cytotoxicity Assay (HeLa-CD4-βgal cells) (HeLa-CD4-βgal cells [1]): >10000 ng/mL
CC50, Cytotoxicity Assay (Hep-2 cells) (HEp-2 cells [11]): >10000 ng/mL
CC50, Cytotoxicity Assay (uninfected HeLa-CD4-Bgal cells) (HeLa-CD4-βgal cells [12]): >10000 ng/mL
